Laboratory results as given in the supplement of paper PMC7877785.
± gives the uncertainty stated by the source.

Assay: self-splicing fitness, log relative to wild type (ln ratio); higher = more splicing; Tetrahymena group I intron in knt gene, E. coli kanamycin selection, DiMSum; sequences stand for … in CUCUCU…GGAGGGAAAAGUUAUCAGGCAUGCACCUGGUAGCUAGUCUUUAAACCAAUAGAUUGCAUCGGUUUAAAAGGCAAGACCGUCAAAUUGCGGGAAAGGGGUCAACAGCCGUUCAGUACCAAGUCUCAGGGGAAACUUUGAGAUGGCCUUGCAAAGGGUAUGGUAAUAAGCUGACGGACAUGGUCCUAACCACGCAGCCAAGUCCUAAGUCAACAGAUCUUCUGUUGAUAUGGAUGCAGUUCACAGACUAAAUGUCGGUCGGGGAAGAUGUAUUCUUCUCAUAAGAUAUAGUCGGACCUCUCCUUAAUGGGAGCUAGCGGAUGAAGUGAUGCAACACUGGAGCCGCUGGGAACUAAUUUGUAUGCGAAAGUAUAUUGAUUAGUUUUGGAGUACUCGUGGUCG
In short: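 Six replicate transformations of E. coli BL21(DE3) with a pET-22b(+) library were grown overnight at 37°C or 30°C. The library randomised all eight P1ex-region intron nucleotides, the intron lying in the knt kanamycin-resistance gene, and plates were LB agar with or without 25 μg/mL kanamycin plus 100 μg/mL carbenicillin, 50 μM IPTG and 0.2% rhamnose. Pooled colonies were amplicon-sequenced on an Illumina HiSeq 2500, and fitness is the DiMSum error-weighted combination of wild-type-normalised replicate fold changes, kanamycin versus none.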

Sequence	self-splicing fitness (ln) (30 °C)	self-splicing fitness (ln) (37 °C)
AGCCAGCAAUAUUACGAUCU	-0.174 ± 0.11	0.256 ± 0.1
AGCCAGCAAUAUUACGCAGA	-3.39 ± 0.18	-2.94 ± 0.18
AGCCAGCAAUAUUACGCAGU	-4 ± 0.2	-3.46 ± 0.21
AGCCAGCAAUAUUACGCCCA	-1.93 ± 0.2	-1.72 ± 0.25
AGCCAGCAAUAUUACGCCCU	0.0781 ± 0.11	0.234 ± 0.13
AGCCAGCAAUAUUACGCCGC	-2.98 ± 0.28	-3.25 ± 0.37
AGCCAGCAAUAUUACGCCUG	-2.37 ± 0.16	-2.11 ± 0.27
AGCCAGCAAUAUUACGCGAC	-0.935 ± 0.13	-1.78 ± 0.2
AGCCAGCAAUAUUACGCUGU	-3.57 ± 0.2	-3.32 ± 0.19
AGCCAGCAAUAUUACGGAAA	-1.88 ± 0.3	-1.3 ± 0.25
AGCCAGCAAUAUUACGGACA	-0.814 ± 0.1	-0.491 ± 0.13
AGCCAGCAAUAUUACGGACC	-0.609 ± 0.095	-0.386 ± 0.11
AGCCAGCAAUAUUACGGACU	-1.93 ± 0.088	-0.917 ± 0.096
AGCCAGCAAUAUUACGGAUG	-1.85 ± 0.1	-0.824 ± 0.12
AGCCAGCAAUAUUACGGCGA	-1.33 ± 0.095	-0.342 ± 0.11
AGCCAGCAAUAUUACGGGCG	-2.66 ± 0.1	-0.918 ± 0.1
AGCCAGCAAUAUUACGGGGA	-1.87 ± 0.12	-0.713 ± 0.11
AGCCAGCAAUAUUACGGUCA	-0.0408 ± 0.09	0.4 ± 0.093
AGCCAGCAAUAUUACGUCUA	-3 ± 0.21	-2.05 ± 0.19
AGCCAGCAAUAUUACGUGUG	-3.01 ± 0.09	-1.61 ± 0.086
AGCGAGCAAUAUUACGACGG	-3.17 ± 0.44	-1.81 ± 0.26
AGCGAGCAAUAUUACGAGGC	-3.16 ± 0.44	
AGCGAGCAAUAUUACGAGUC	-3.91 ± 0.42	-2.24 ± 0.24
AGCGAGCAAUAUUACGAUCC		-0.865 ± 0.49
AGCGAGCAAUAUUACGAUCU	-0.233 ± 0.09	-0.579 ± 0.12
AGCGAGCAAUAUUACGAUGG	-4.61 ± 0.42	-2.68 ± 0.24

Sequence	self-splicing fitness (ln) (30 °C)	self-splicing fitness (ln) (37 °C)
AGCGAGCAAUAUUACGCACG	-3.64 ± 0.45	
AGCGAGCAAUAUUACGCACU	-1.62 ± 0.2	-1.37 ± 0.29
AGCGAGCAAUAUUACGCCAC	-1.84 ± 0.39	
AGCGAGCAAUAUUACGCGCA	-0.891 ± 0.23	-0.546 ± 0.2
AGCGAGCAAUAUUACGCUAU		-2.87 ± 0.24
AGCGAGCAAUAUUACGCUCA	-2.59 ± 0.21	-2.5 ± 0.26
AGCGAGCAAUAUUACGGAAC	-3.53 ± 0.32	-1.5 ± 0.29
AGCGAGCAAUAUUACGGCAC	-1.57 ± 0.22	-0.495 ± 0.3
AGCGAGCAAUAUUACGGCGG	-1.1 ± 0.19	-1.8 ± 0.24
AGCGAGCAAUAUUACGGCGU	-0.762 ± 0.11	-0.808 ± 0.093
AGCGAGCAAUAUUACGGCUG	-1.47 ± 0.12	-0.625 ± 0.15
AGCGAGCAAUAUUACGGGUU	-2.83 ± 0.2	-1.09 ± 0.15
AGCGAGCAAUAUUACGGUGU	-2.55 ± 0.24	-2.37 ± 0.24
AGCGAGCAAUAUUACGUAAG		-1.76 ± 0.37
AGCGAGCAAUAUUACGUAAU	-3.21 ± 0.14	-2.04 ± 0.14
AGCGAGCAAUAUUACGUAGU	-4.11 ± 0.16	-1.11 ± 0.13
AGCGAGCAAUAUUACGUCCC	-1 ± 0.11	-0.699 ± 0.14
AGCGAGCAAUAUUACGUGAA	-3.44 ± 0.19	-1.23 ± 0.2
AGCGAGCAAUAUUACGUUAA	-3.86 ± 0.37	-2.67 ± 0.3
AGCGAGCAAUAUUACGUUCA	-1.81 ± 0.096	-0.891 ± 0.091
AGCGAGCAAUAUUACGUUGU	-3.39 ± 0.13	-3.31 ± 0.15
AGCUAGCAAUAUUACGAAGC	-3.35 ± 0.22	-2.43 ± 0.3
AGCUAGCAAUAUUACGAAUA	-3.3 ± 0.27	-2.35 ± 0.24
AGCUAGCAAUAUUACGAGAU	-3.17 ± 0.19	-1.22 ± 0.16
AGCUAGCAAUAUUACGAGGA	-3.9 ± 0.35	-2.42 ± 0.42
AGCUAGCAAUAUUACGAGGC	-3.21 ± 0.24	-1.96 ± 0.21

Sequence	self-splicing fitness (ln) (30 °C)	self-splicing fitness (ln) (37 °C)
AGCUAGCAAUAUUACGAUGC	-2.47 ± 0.12	-2.12 ± 0.17
AGCUAGCAAUAUUACGCAAU	-1.79 ± 0.19	-1.77 ± 0.18
AGCUAGCAAUAUUACGCCUU	-1.7 ± 0.1	-0.609 ± 0.08
AGCUAGCAAUAUUACGCUGA	-2.63 ± 0.18	-0.955 ± 0.09
AGCUAGCAAUAUUACGGCAA	-0.629 ± 0.081	-0.284 ± 0.097
AGCUAGCAAUAUUACGGGAG	-1.59 ± 0.13	-2.54 ± 0.19
AGCUAGCAAUAUUACGGGAU	-2.04 ± 0.11	-1.49 ± 0.13
AGCUAGCAAUAUUACGGGCC	-3.59 ± 0.26	-2.51 ± 0.24
AGCUAGCAAUAUUACGGUAG	-3.91 ± 0.27	-3.18 ± 0.23
AGCUAGCAAUAUUACGGUCC	-0.52 ± 0.1	-0.0902 ± 0.14
AGCUAGCAAUAUUACGGUUG	-1.95 ± 0.075	-1.37 ± 0.11
AGCUAGCAAUAUUACGUAGC	-1.84 ± 0.12	-2.46 ± 0.25
AGCUAGCAAUAUUACGUAUC	-3.55 ± 0.18	-3.09 ± 0.24
AGCUAGCAAUAUUACGUCAA	-4.05 ± 0.41	-2 ± 0.16
AGCUAGCAAUAUUACGUCCU	-0.19 ± 0.083	0.188 ± 0.11
AGCUAGCAAUAUUACGUUCA	-1.59 ± 0.12	-0.979 ± 0.15
AGGAAGCAAUAUUACGAAAA		-2.42 ± 0.41
AGGAAGCAAUAUUACGAAGG	-2.92 ± 0.28	-2.8 ± 0.38
AGGAAGCAAUAUUACGACCC	-0.677 ± 0.23	-1.73 ± 0.26
AGGAAGCAAUAUUACGAGAA		-1.39 ± 0.32
AGGAAGCAAUAUUACGCACG	-0.986 ± 0.15	-1.23 ± 0.18
AGGAAGCAAUAUUACGCAUU	-3.7 ± 0.35	-2.13 ± 0.26
AGGAAGCAAUAUUACGCCAA	-1.65 ± 0.35	-1.5 ± 0.31
AGGAAGCAAUAUUACGCCAG	-2.89 ± 0.18	-1.81 ± 0.22
AGGAAGCAAUAUUACGCCCU	-2.95 ± 0.33	
AGGAAGCAAUAUUACGGAAU	-2.88 ± 0.22	-2.14 ± 0.3
